# Patent US11541133B2, “Treatment of cancer cells overexpressing somatostatin receptors using ocreotide derivatives chelated to radioisotopes” (RADIOMEDIX INC., priority 2017, dated 2023)
# Tests used:
# [1] = Biodistribution in non-tumor bearing CD-1 mice at 4 h post-injection (FIGS. 12-13); settings: female, CD-1, mouse, in vivo, total radioactivity
# Experimental: FIG. 12 is a bar graph 1200 showing the biodistribution (% ID/g)(y-axis) for various organs (x-axis). The biodistribution of ^203Pb-TCMCTATE and ^203Pb-DOTAMTATE is shown for non-tumor bearing mice done at 4 h post-injection. The biodistribution studies of ^203Pb-TCMCTATE and ^203Pb-DOTAMTATE are completed in non-tumor bearing mice (CD-1 mice, Female, 20 g wt. 4-5 weeks) at 4 h post-injection of the cancer targeting compositions.
# In comparison, FIG. 13 is a graph 1300 (similar to the graph of FIG. 12), except that the biodistribution study is of ^203Pb-acetate (a lead radioisotope without a chelator or targeting moiety) in non-tumor bearing mice done at 4 h post-injection. A higher accumulation of isotope is observed in blood, kidney, liver and lung compared to the chelated radioisotopes of FIG. 12. The biodistribution studies of the ^203Pb-acetate indicate retention of the isotope in bone marrow, blood and liver after 4 h post-injection.
# [2] = ^203Pb-DOTAMTATE biodistribution in athymic nude mice (FIG. 16); type: in vivo; settings: female athymic nude mice, 10 μCi iv, 4, 24 and 48 hours
# Experimental: FIG. 16 is a bar graph 1600 showing the biodistribution results (% ID/g) of ^203Pb-DOTAMTATE in various organs (y-axis). The biodistribution data are acquired at 4 h, 24 h, and 48 h post-injection. […] There is also accumulation of the composition observed in kidneys and bladder due elimination of the composition through renal clearance. As may be seen from these figures, the composition is washed out from all measured organs over time in non-tumor bearing mice.
# Female athymic nude mice (˜20 g) are injected with a single dose of ^203Pb-DOTAMTATE. Specifically, 10 μCi of ^203Pb-DOTAMTATE is diluted in PBS and 100 μl is administered to the mice via intravenous injection. The animals are sacrificed at predetermined time points of 4 hr, 24 hours and 48 hours post drug injection. Tissues are collected from each animal and evaluated for amount of radioactive material in each organ by auto gamma counter. Specifically, organs are harvested, weighed and transferred to polypropylene tubes. The tubes are placed in a calibrated Wizard2 γ-counter (PerkinElmer, Shelton, Conn.) and counted for three minutes (204-274 keV). A standard consisting of one-twentieth of the injection volume is counted with each time point. The background is automatically subtracted from the counts. The standard is also used for decay correction. % ID/g is calculated for each organ collected.
# [3] = Side by side biodistribution of ^203Pb- and ^212Pb-DOTAMTATE in CD-1 mice (FIG. 32); type: in vivo; settings: female CD-1 mice, 10 μCi iv, 4 hr and 24 hours
# Experimental: Female CD-1 mice (˜20 g) are injected with a single dose of ^203Pb-DOTAMTATE or ^212Pb-DOTAMTATE. Specifically, 10 μCi of ^203Pb-DOTAMTATE or ^212Pb-DOTAMTATE is diluted in saline and 100 μl is administered to the mice via intravenous injection. The animals are sacrificed at predetermined time points of 4 hr and 24 hours post drug injection. Tissues are collected from each animal and evaluated for amount of radioactive material in each organ by auto gamma counter. Specifically, organs are harvested, weighed and transferred to 12×55 mm polypropylene tubes. The tubes are placed in a calibrated Wizard2 γ-counter (PerkinElmer, Shelton, Conn.) and counted for three minutes (204-274 keV). A standard consisting of one-twentieth of the injection volume is counted with each time point. The background is automatically subtracted from the counts. The standard is also used for decay correction. % ID/g is calculated for each organ collected, wherein “% ID” means percent injection dosage.
# [4] = Dosimetry and bio-distribution of ^203Pb-DOTAMTATE in patients with somatostatin expressing neuroendocrine tumors (SPECT-CT); type: in vivo, human; settings: human, in vivo
# Experimental: Total of 6 patients are enrolled in the first-in-human open-label, single-dose, dosimetry and bio-distribution of ^203Pb-DOTAMTATE.
# All patients (1 female and 5 male) receive an average dose of 4.94 (4.66-5.26) mCi of ^203Pb-DOTAM-TATE and undergo 1 hour, 4 hour, 24 hour and 48 hour post injection SPECT-CT scans. Ethnicity of all 6 patients is Caucasian.
# Pharmacokinetic data from ^203Pb-DOTAMTATE imaging are used to calculate the absorbed dose from ^203Pb-DOTAMTATE imaging. The data is then extrapolated to calculate the expected tissue absorbed doses following the administration of ^212Pb-DOTAMTATE for future Targeted Alpha particle Therapy (TAT).
# [5] = Radiochemical stability by radio-HPLC after labeling, incubation in PBS buffer; settings: room temperature
# in vivo = test: in vivo; set-up: species or system mice
# Experimental: ^212Pb-DOTATOC is prepared based on activity needed at time of injection. 4.1 ng of peptide per 10 μCi of ^212Pb into a tube is added. The mixture is incubated for 10 minutes at 50° C. with shaking. ITLC (Instant thin layer chromatography) is used to verify that chelation is >95%. 100 μl of ^212Pb-DOTATOC is intravenously injected into the tail of each mouse. An auto gamma counter is used to determine the counts of each organ and control tube.
# [6] = female, CD-1, mouse, iv, 10 uCi, total radioactivity
smiles,measurement,setting,value
"C[C@@H](O)[C@H](NC(=O)[C@@H]1CSSC[C@H](NC(=O)[C@@H](Cc2ccccc2)NC(=O)CN2CCN(CC(N)=O)CCN(CC(N)=O)CCN(CC(N)=O)CC2)C(=O)N[C@@H](Cc2ccc(O)cc2)C(=O)N[C@H](Cc2c[nH]c3ccccc23)C(=O)N[C@@H](CCCCN)C(=O)N[C@@H]([C@@H](C)O)C(=O)N1)C(=O)O [^203Pb-DOTAMTATE, ((4R,7S,10S,13R,16S,19R)-13-((1H-indol-3-yl)methyl)-10-(4-aminobutyl)-16-(4-hydroxybenzyl)-7-((R)-1-hydroxyethyl)-6,9,12,15,18-pentaoxo-19-((R)-3-phenyl-2-(2-(4,7,10-tris(2-amino-2-oxoethyl)-1,4,7,10-tetraazacyclododecan-1-yl)acetamido)propanamido)-1,2-dithia-5,8,11,14,17-pentaazacycloicosane-4-carbonyl)-L-threonine chelated to M, metal not drawn]",tissue uptake at 4 h,[1]; kidney retention,9.79 ± 2.9 %ID/g
same,tissue uptake at 4 h,[1]; retention in other organs (than kidneys),< 2 %ID/g
same,organ uptake,[2],high initial uptake of the drug in the pancreas and kidneys that continues to decrease over time
same,organ uptake compared with ^212Pb-DOTAMTATE in all critical organs,[3],not significantly different
same,"absorbed dose, kidneys, average, for ^212Pb",[4],19 mGy/MBq
same,"absorbed dose, liver, average, for ^212Pb",[4],17 mGy/MBq
same,dose to bone marrow,[4],1.6 Gy
same,dose to heart wall,[4],3.7 Gy
same,dose to lungs,[4],2.5 Gy
same,dose to osteogenic cells,[4],0.5 Gy
same,dose to spleen,[4],31 Gy
same,"radiochemical stability (radiochemical yield, no free ^203Pb peak in radio-HPLC)",[5]; up to at least 24 h post-labeling,≥ 98%
"C[C@@H](O)[C@@H]1NC(=O)[C@H](CCCCN)NC(=O)[C@@H](Cc2c[nH]c3ccccc23)NC(=O)[C@H](Cc2ccc(O)cc2)NC(=O)[C@@H](NC(=O)[C@@H](Cc2ccccc2)NC(=O)CN2CCN(CC(=O)O)CCN(CC(=O)O)CCN(CC(=O)O)CC2)CSSC[C@@H](C(=O)N[C@H](CO)[C@@H](C)O)NC1=O [^212Pb-DOTATOC, metal not drawn]",tissue uptake at 0.5 h,in vivo; [6],19 %ID/g
same,tissue uptake at 4 h,in vivo; [6],22 %ID/g
same,drug in all other organs,in vivo; mouse,nearly undetectable
"C[C@@H](O)[C@H](NC(=O)[C@@H]1CSSC[C@H](NC(=O)[C@@H](Cc2ccccc2)NC(=S)Nc2ccc(C[C@H]3CN(CC(N)=O)CCN(CC(N)=O)CCN(CC(N)=O)CCN3CC(N)=O)cc2)C(=O)N[C@@H](Cc2ccc(O)cc2)C(=O)N[C@H](Cc2c[nH]c3ccccc23)C(=O)N[C@@H](CCCCN)C(=O)N[C@@H]([C@@H](C)O)C(=O)N1)C(=O)O [^203Pb-TCMCTATE, ((4R,7S,10S,13R,16S,19R)-13-((1H-indol-3-yl)methyl)-10-(4-aminobutyl)-16-(4-hydroxybenzyl)-7-((R)-1-hydroxyethyl)-6,9,12,15,18-pentaoxo-19-((R)-3-phenyl-2-(3-(4-(((S)-1,4,7,10-tetrakis(2-amino-2-oxoethyl)-1,4,7,10-tetraazacyclododecan-2-yl)methyl)phenyl)thioureido)propanamido)-1,2-dithia-5,8,11,14,17-pentaazacycloicosane-4-carbonyl)-L-threonine chelated to M, metal not drawn]",tissue uptake at 4 h,"[1]; non-tumor bearing CD-1 mice, 4 h post-injection, read-out: kidney retention",23.5 ± 1.54 %ID/g
same,tissue uptake at 4 h,"[1]; non-tumor bearing CD-1 mice, 4 h post-injection, read-out: retention in other organs (than kidneys)",< 2 %ID/g
same,radiochemical stability (radio-HPLC),[5]; up to 18 h post-labeling,≥ 96%
